Laboratory results published in PMC10514313, “Identification of enzymatic functions of osmo-regulated periplasmic glucan biosynthesis proteins from Escherichia coli reveals a novel glycoside hydrolase family” (Communications Biology, 2023).

How the values were obtained:
EcOpgD = target: T1, EcOpgD (Escherichia coli, UniProt P40120, D388N); experiment: X-ray crystal structure of the complex ([…] Å); format: binding; settings: co-crystallised with β-1,2-glucan of average DP 121, Sop13 is the part seen in density (chain B; DP11 in chain A); pH 4.0; subsites -7 to +6; Table 3 prints the mutant as D378N
T1 construct: gene mdoD; 60601 Da; homodimer, Loop A of the other subunit completes the site
T1 sequence (P40120 33-551 D388N): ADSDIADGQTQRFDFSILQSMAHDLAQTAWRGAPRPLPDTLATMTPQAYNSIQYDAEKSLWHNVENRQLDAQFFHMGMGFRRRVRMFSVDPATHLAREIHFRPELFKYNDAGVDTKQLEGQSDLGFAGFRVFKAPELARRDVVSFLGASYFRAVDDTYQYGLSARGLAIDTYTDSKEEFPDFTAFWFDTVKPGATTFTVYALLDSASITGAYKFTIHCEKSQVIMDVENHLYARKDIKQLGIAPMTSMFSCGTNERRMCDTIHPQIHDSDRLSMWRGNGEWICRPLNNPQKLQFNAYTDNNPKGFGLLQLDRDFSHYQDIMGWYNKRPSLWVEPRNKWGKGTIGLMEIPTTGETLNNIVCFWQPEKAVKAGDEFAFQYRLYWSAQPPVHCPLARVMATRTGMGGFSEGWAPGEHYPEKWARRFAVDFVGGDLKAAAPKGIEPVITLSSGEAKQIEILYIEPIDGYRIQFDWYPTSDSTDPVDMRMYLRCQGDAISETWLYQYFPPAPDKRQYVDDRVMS

EcOpgG = target: T2, EcOpgG (Escherichia coli, UniProt P33136, D361N); experiment: X-ray crystal structure of the complex ([…] Å); format: binding; settings: crystallised and soaked with β-1,2-glucan of average DP 17.7, Sop16 is the part seen in density; pH 5.0
T2 construct: gene mdoG; 56543 Da; homodimer
T2 sequence (P33136 23-511 D361N): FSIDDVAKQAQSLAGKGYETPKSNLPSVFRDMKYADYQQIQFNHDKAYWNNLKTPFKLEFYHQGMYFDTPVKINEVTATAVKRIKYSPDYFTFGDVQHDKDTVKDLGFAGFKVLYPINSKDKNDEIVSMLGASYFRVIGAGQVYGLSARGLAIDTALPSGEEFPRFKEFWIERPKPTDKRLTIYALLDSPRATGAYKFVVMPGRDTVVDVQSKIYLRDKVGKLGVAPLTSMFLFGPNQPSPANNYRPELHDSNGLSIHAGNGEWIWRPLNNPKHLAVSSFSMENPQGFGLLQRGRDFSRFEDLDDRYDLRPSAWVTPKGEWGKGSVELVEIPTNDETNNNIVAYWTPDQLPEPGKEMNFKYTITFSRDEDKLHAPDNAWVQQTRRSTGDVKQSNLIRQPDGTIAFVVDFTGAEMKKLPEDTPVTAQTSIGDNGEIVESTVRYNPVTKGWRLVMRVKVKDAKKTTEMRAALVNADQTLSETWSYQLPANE

[1] = target: the molecule itself; experiment: SEC; Superdex 200GL (24 ml), 20 mM Tris-HCl pH 7.5, 100 mM NaCl, 0.5 mg/mL protein loaded, 0.3 mL/min; molecular weight from marker proteins
[2] = target: the molecule itself; experiment: crystal structure; ligand-free EcOpgD D388N, 2.95 Å, 12 monomers (six dimers) in the asymmetric unit; 0.1 M Tris-HCl pH 8.5, 0.1 M trimethylamine-N-oxide, 17% PEG 2000 MME, 20 °C
[3] = target: the molecule itself; experiment: crystal structure; EcOpgG D361N with β-1,2-glucan, 1.81 Å, one chain in the asymmetric unit, dimer with a symmetry mate; 0.1 M MMT pH 5.0, 27% PEG 400, 20 °C

OC[C@H]1O[C@@H](O[C@H]2[C@H](O[C@H]3[C@H](O[C@H]4[C@H](O[C@H]5[C@H](O[C@H]6[C@H](O[C@H]7[C@H](O[C@H]8[C@H](O[C@H]9[C@H](O[C@H]%10[C@H](O[C@H]%11[C@H](O[C@H]%12[C@H](O[C@H]%13C(O)O[C@H](CO)[C@@H](O)[C@@H]%13O)O[C@H](CO)[C@@H](O)[C@@H]%12O)O[C@H](CO)[C@@H](O)[C@@H]%11O)O[C@H](CO)[C@@H](O)[C@@H]%10O)O[C@H](CO)[C@@H](O)[C@@H]9O)O[C@H](CO)[C@@H](O)[C@@H]8O)O[C@H](CO)[C@@H](O)[C@@H]7O)O[C@H](CO)[C@@H](O)[C@@H]6O)O[C@H](CO)[C@@H](O)[C@@H]5O)O[C@H](CO)[C@@H](O)[C@@H]4O)O[C@H](CO)[C@@H](O)[C@@H]3O)O[C@H](CO)[C@@H](O)[C@@H]2O)[C@H](O)[C@@H](O)[C@@H]1O (stereo partly drawn) [Sop13]
X-ray crystal structure of the complex (2.06 Å) (EcOpgD): electron densities of β-1,2-glucans with DP11 and DP13 (Sop11 and Sop13, respectively) were clearly observed

OC[C@H]1O[C@@H](O[C@H]2[C@H](O[C@H]3[C@H](O[C@H]4[C@H](O[C@H]5[C@H](O[C@H]6[C@H](O[C@H]7[C@H](O[C@H]8[C@H](O[C@H]9[C@H](O[C@H]%10[C@H](O[C@H]%11[C@H](O[C@H]%12[C@H](O[C@H]%13[C@H](O[C@H]%14[C@H](O[C@H]%15[C@H](O[C@H]%16C(O)O[C@H](CO)[C@@H](O)[C@@H]%16O)O[C@H](CO)[C@@H](O)[C@@H]%15O)O[C@H](CO)[C@@H](O)[C@@H]%14O)O[C@H](CO)[C@@H](O)[C@@H]%13O)O[C@H](CO)[C@@H](O)[C@@H]%12O)O[C@H](CO)[C@@H](O)[C@@H]%11O)O[C@H](CO)[C@@H](O)[C@@H]%10O)O[C@H](CO)[C@@H](O)[C@@H]9O)O[C@H](CO)[C@@H](O)[C@@H]8O)O[C@H](CO)[C@@H](O)[C@@H]7O)O[C@H](CO)[C@@H](O)[C@@H]6O)O[C@H](CO)[C@@H](O)[C@@H]5O)O[C@H](CO)[C@@H](O)[C@@H]4O)O[C@H](CO)[C@@H](O)[C@@H]3O)O[C@H](CO)[C@@H](O)[C@@H]2O)[C@H](O)[C@@H](O)[C@@H]1O (stereo partly drawn) [Sop16]
X-ray crystal structure of the complex (1.81 Å) (EcOpgG): In the catalytic pocket of the complex, the electron density of a Sop16 molecule was observed

B1: OpgD from E. coli (EcOpgD), wild type, without signal sequence, C-terminal His6-tag (enzyme, Escherichia coli, UniProt P40120 33-551, looked up)
chain: ADSDIADGQTQRFDFSILQSMAHDLAQTAWRGAPRPLPDTLATMTPQAYNSIQYDAEKSLWHNVENRQLDAQFFHMGMGFRRRVRMFSVDPATHLAREIHFRPELFKYNDAGVDTKQLEGQSDLGFAGFRVFKAPELARRDVVSFLGASYFRAVDDTYQYGLSARGLAIDTYTDSKEEFPDFTAFWFDTVKPGATTFTVYALLDSASITGAYKFTIHCEKSQVIMDVENHLYARKDIKQLGIAPMTSMFSCGTNERRMCDTIHPQIHDSDRLSMWRGNGEWICRPLNNPQKLQFNAYTDNNPKGFGLLQLDRDFSHYQDIMGWYNKRPSLWVEPRNKWGKGTIGLMEIPTTGETLDNIVCFWQPEKAVKAGDEFAFQYRLYWSAQPPVHCPLARVMATRTGMGGFSEGWAPGEHYPEKWARRFAVDFVGGDLKAAAPKGIEPVITLSSGEAKQIEILYIEPIDGYRIQFDWYPTSDSTDPVDMRMYLRCQGDAISETWLYQYFPPAPDKRQYVDDRVMS
notes: OpgD (glucans biosynthesis protein D) of Escherichia coli, gene amplified from a colony of E. coli BL21(DE3), GenBank CAQ31910.2; theoretical mass 60601 Da; Cloned between the XhoI and NdeI sites of pET30a; also called MdoD; source: E. coli BL21(DE3), purified (HisTrap FF crude)
stoichiometry N [1]: 2

B2: EcOpgD D388N mutant, without signal sequence, C-terminal His6-tag (enzyme, Escherichia coli, UniProt P40120 33-551, looked up)
chain: ADSDIADGQTQRFDFSILQSMAHDLAQTAWRGAPRPLPDTLATMTPQAYNSIQYDAEKSLWHNVENRQLDAQFFHMGMGFRRRVRMFSVDPATHLAREIHFRPELFKYNDAGVDTKQLEGQSDLGFAGFRVFKAPELARRDVVSFLGASYFRAVDDTYQYGLSARGLAIDTYTDSKEEFPDFTAFWFDTVKPGATTFTVYALLDSASITGAYKFTIHCEKSQVIMDVENHLYARKDIKQLGIAPMTSMFSCGTNERRMCDTIHPQIHDSDRLSMWRGNGEWICRPLNNPQKLQFNAYTDNNPKGFGLLQLDRDFSHYQDIMGWYNKRPSLWVEPRNKWGKGTIGLMEIPTTGETLNNIVCFWQPEKAVKAGDEFAFQYRLYWSAQPPVHCPLARVMATRTGMGGFSEGWAPGEHYPEKWARRFAVDFVGGDLKAAAPKGIEPVITLSSGEAKQIEILYIEPIDGYRIQFDWYPTSDSTDPVDMRMYLRCQGDAISETWLYQYFPPAPDKRQYVDDRVMS
notes: made from the EcOpgD plasmid of m1; text and methods say D388N; source: E. coli BL21(DE3), purified (HisTrap FF crude)
binding result [2]: binds

B3: OpgG from E. coli (EcOpgG), wild type, without signal sequence, C-terminal His6-tag (enzyme, Escherichia coli, UniProt P33136 23-511, looked up)
chain: FSIDDVAKQAQSLAGKGYETPKSNLPSVFRDMKYADYQQIQFNHDKAYWNNLKTPFKLEFYHQGMYFDTPVKINEVTATAVKRIKYSPDYFTFGDVQHDKDTVKDLGFAGFKVLYPINSKDKNDEIVSMLGASYFRVIGAGQVYGLSARGLAIDTALPSGEEFPRFKEFWIERPKPTDKRLTIYALLDSPRATGAYKFVVMPGRDTVVDVQSKIYLRDKVGKLGVAPLTSMFLFGPNQPSPANNYRPELHDSNGLSIHAGNGEWIWRPLNNPKHLAVSSFSMENPQGFGLLQRGRDFSRFEDLDDRYDLRPSAWVTPKGEWGKGSVELVEIPTNDETNDNIVAYWTPDQLPEPGKEMNFKYTITFSRDEDKLHAPDNAWVQQTRRSTGDVKQSNLIRQPDGTIAFVVDFTGAEMKKLPEDTPVTAQTSIGDNGEIVESTVRYNPVTKGWRLVMRVKVKDAKKTTEMRAALVNADQTLSETWSYQLPANE
notes: OpgG (glucans biosynthesis protein G) of Escherichia coli, gene amplified from a colony of E. coli BL21(DE3), GenBank CAQ31569.1; theoretical mass 56543 Da; Cloned between the XhoI and NdeI sites of pET30a; also called MdoG; source: E. coli BL21(DE3), purified (HisTrap FF crude)
stoichiometry N [1]: 2

B4: EcOpgG D361N mutant, without signal sequence, C-terminal His6-tag (enzyme, Escherichia coli, UniProt P33136 23-511, looked up)
chain: FSIDDVAKQAQSLAGKGYETPKSNLPSVFRDMKYADYQQIQFNHDKAYWNNLKTPFKLEFYHQGMYFDTPVKINEVTATAVKRIKYSPDYFTFGDVQHDKDTVKDLGFAGFKVLYPINSKDKNDEIVSMLGASYFRVIGAGQVYGLSARGLAIDTALPSGEEFPRFKEFWIERPKPTDKRLTIYALLDSPRATGAYKFVVMPGRDTVVDVQSKIYLRDKVGKLGVAPLTSMFLFGPNQPSPANNYRPELHDSNGLSIHAGNGEWIWRPLNNPKHLAVSSFSMENPQGFGLLQRGRDFSRFEDLDDRYDLRPSAWVTPKGEWGKGSVELVEIPTNDETNNNIVAYWTPDQLPEPGKEMNFKYTITFSRDEDKLHAPDNAWVQQTRRSTGDVKQSNLIRQPDGTIAFVVDFTGAEMKKLPEDTPVTAQTSIGDNGEIVESTVRYNPVTKGWRLVMRVKVKDAKKTTEMRAALVNADQTLSETWSYQLPANE
notes: made from the EcOpgG plasmid of m2; One monomer in the asymmetric unit; the second chain of the dimer is a symmetry mate; source: E. coli BL21(DE3), purified (HisTrap FF crude)
binding result [3]: binds
